T1: EsCas13d, nuclease-dead (Eubacterium siraeum, UniProt B0MS50, R295A;H300A;R849A;H854A)
T1 sequence: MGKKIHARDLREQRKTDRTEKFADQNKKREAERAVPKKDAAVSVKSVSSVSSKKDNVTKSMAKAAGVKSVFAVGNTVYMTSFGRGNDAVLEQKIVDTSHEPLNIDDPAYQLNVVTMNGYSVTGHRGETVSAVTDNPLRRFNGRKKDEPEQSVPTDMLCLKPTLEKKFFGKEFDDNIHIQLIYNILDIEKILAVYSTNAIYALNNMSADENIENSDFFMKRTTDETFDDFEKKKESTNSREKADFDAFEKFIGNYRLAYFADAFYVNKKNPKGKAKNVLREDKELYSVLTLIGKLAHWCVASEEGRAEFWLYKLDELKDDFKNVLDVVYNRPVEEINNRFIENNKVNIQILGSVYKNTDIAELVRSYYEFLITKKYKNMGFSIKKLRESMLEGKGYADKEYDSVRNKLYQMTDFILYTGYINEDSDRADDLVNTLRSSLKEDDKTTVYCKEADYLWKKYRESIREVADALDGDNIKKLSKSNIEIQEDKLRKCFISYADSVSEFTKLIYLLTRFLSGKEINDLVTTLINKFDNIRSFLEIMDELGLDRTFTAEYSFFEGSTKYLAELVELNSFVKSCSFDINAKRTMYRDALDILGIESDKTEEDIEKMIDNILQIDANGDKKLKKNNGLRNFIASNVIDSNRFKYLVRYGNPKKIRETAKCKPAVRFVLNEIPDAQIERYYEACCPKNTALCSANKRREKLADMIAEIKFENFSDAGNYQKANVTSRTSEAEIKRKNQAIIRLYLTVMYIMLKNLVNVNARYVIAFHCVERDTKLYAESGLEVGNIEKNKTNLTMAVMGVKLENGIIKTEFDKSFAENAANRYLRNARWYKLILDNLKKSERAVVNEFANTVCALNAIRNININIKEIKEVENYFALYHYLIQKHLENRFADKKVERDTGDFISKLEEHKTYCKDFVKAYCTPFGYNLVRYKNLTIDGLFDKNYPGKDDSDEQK


Molecular target: T1, EsCas13d, nuclease-dead
Experiment: crRNA (strand 1, pre-loaded); Mg2+; 40 mM Tris-HCl pH 7.5, 150 mM NaCl, 6 mM MgCl2, 1 mM DTT, 0.1% Tween-20, 0.2 mg/ml BSA; 25 C; 10 min per concentration, then washed
Details: tags: His6-TwinStrep-SUMO cleaved; N-terminal SNAP kept (SNAP-Surface 488); label: 3' end held by stalled T7 RNA polymerase

Row | Binder | Kd
1 | target 1 insA 3' of 21,insU 3' of 7 (mixed) RNA 1: CACCCGUGCAAAAAUGCAGGGGUCUAAAACUGAGCGGAUAACCUCUCUAUGG RNA 2: GGGAAUGGAUCCACAUCUACGAAUUCGUACCAAUAGAGAGGUUAUCUCGCUCACCGAGAUCGGAAGAGCACACGU | 40.7 ± 3.1 nM
2 | target 1 C7A,A20U (mixed) RNA 1: CACCCGUGCAAAAAUGCAGGGGUCUAAAACUGAGCGGAUAACCUCUCUAUGG RNA 2: GGGAAUGGAUCCACAUCUACGAAUUCGUACCUUAGAGAGGUUAUACGCUCACCGAGAUCGGAAGAGCACACGU | 45 ± 5 nM
3 | target 1 A9G,G15A (mixed) RNA 1: CACCCGUGCAAAAAUGCAGGGGUCUAAAACUGAGCGGAUAACCUCUCUAUGG RNA 2: GGGAAUGGAUCCACAUCUACGAAUUCGUACCAUAGAAAGGUUGUCCGCUCACCGAGAUCGGAAGAGCACACGU | 11.6 ± 0.7 nM
4 | target 1 insC 3' of 15,insC 3' of 14 (mixed) RNA 1: CACCCGUGCAAAAAUGCAGGGGUCUAAAACUGAGCGGAUAACCUCUCUAUGG RNA 2: GGGAAUGGAUCCACAUCUACGAAUUCGUACCAUAGAGCACGGUUAUCCGCUCACCGAGAUCGGAAGAGCACACGU | 12 ± 1 nM
5 | target 1 insU 3' of 13,insA 3' of 3 (mixed) RNA 1: CACCCGUGCAAAAAUGCAGGGGUCUAAAACUGAGCGGAUAACCUCUCUAUGG RNA 2: GGGAAUGGAUCCACAUCUACGAAUUCGUACCAUAGAGAGUGUUAUCCGCUACACCGAGAUCGGAAGAGCACACGU | 24 ± 3.1 nM
6 | target 1 A1C,C7G (mixed) RNA 1: CACCCGUGCAAAAAUGCAGGGGUCUAAAACUGAGCGGAUAACCUCUCUAUGG RNA 2: GGGAAUGGAUCCACAUCUACGAAUUCGUACCAUAGAGAGGUUAUGCGCUCCCCGAGAUCGGAAGAGCACACGU | 8.8 ± 0.7 nM
7 | target 1 insU 3' of 22,insG 3' of 9 (mixed) RNA 1: CACCCGUGCAAAAAUGCAGGGGUCUAAAACUGAGCGGAUAACCUCUCUAUGG RNA 2: GGGAAUGGAUCCACAUCUACGAAUUCGUACUCAUAGAGAGGUUAGUCCGCUCACCGAGAUCGGAAGAGCACACGU | 76 ± 12 nM
8 | target 1 insU 3' of 6 (mixed) RNA 1: CACCCGUGCAAAAAUGCAGGGGUCUAAAACUGAGCGGAUAACCUCUCUAUGG RNA 2: GGGAAUGGAUCCACAUCUACGAAUUCGUACCAUAGAGAGGUUAUCCUGCUCACCGAGAUCGGAAGAGCACACGU | 12.8 ± 0.7 nM
9 | target 1 insU 3' of 15,insG 3' of 3 (mixed) RNA 1: CACCCGUGCAAAAAUGCAGGGGUCUAAAACUGAGCGGAUAACCUCUCUAUGG RNA 2: GGGAAUGGAUCCACAUCUACGAAUUCGUACCAUAGAGUAGGUUAUCCGCUGCACCGAGAUCGGAAGAGCACACGU | 6.99 ± 0.32 nM
10 | target 1 U3A,G12C (mixed) RNA 1: CACCCGUGCAAAAAUGCAGGGGUCUAAAACUGAGCGGAUAACCUCUCUAUGG RNA 2: GGGAAUGGAUCCACAUCUACGAAUUCGUACCAUAGAGAGCUUAUCCGCACACCGAGAUCGGAAGAGCACACGU | 8.5 ± 0.4 nM
11 | target 1 C21A,C22A (mixed) RNA 1: CACCCGUGCAAAAAUGCAGGGGUCUAAAACUGAGCGGAUAACCUCUCUAUGG RNA 2: GGGAAUGGAUCCACAUCUACGAAUUCGUAAAAUAGAGAGGUUAUCCGCUCACCGAGAUCGGAAGAGCACACGU | 36 ± 5 nM
12 | target 1 insG 3' of 19,insU 3' of 9 (mixed) RNA 1: CACCCGUGCAAAAAUGCAGGGGUCUAAAACUGAGCGGAUAACCUCUCUAUGG RNA 2: GGGAAUGGAUCCACAUCUACGAAUUCGUACCAUGAGAGAGGUUAUUCCGCUCACCGAGAUCGGAAGAGCACACGU | 92 ± 34 nM
13 | target 1 insU 3' of 22,insA 3' of 6 (mixed) RNA 1: CACCCGUGCAAAAAUGCAGGGGUCUAAAACUGAGCGGAUAACCUCUCUAUGG RNA 2: GGGAAUGGAUCCACAUCUACGAAUUCGUACUCAUAGAGAGGUUAUCCAGCUCACCGAGAUCGGAAGAGCACACGU | 55 ± 16 nM
14 | target 1 C7G (mixed) RNA 1: CACCCGUGCAAAAAUGCAGGGGUCUAAAACUGAGCGGAUAACCUCUCUAUGG RNA 2: GGGAAUGGAUCCACAUCUACGAAUUCGUACCAUAGAGAGGUUAUGCGCUCACCGAGAUCGGAAGAGCACACGU | 8.8 ± 0.5 nM
15 | target 1 C2A,C4U (mixed) RNA 1: CACCCGUGCAAAAAUGCAGGGGUCUAAAACUGAGCGGAUAACCUCUCUAUGG RNA 2: GGGAAUGGAUCCACAUCUACGAAUUCGUACCAUAGAGAGGUUAUCCGUUAACCGAGAUCGGAAGAGCACACGU | 33.5 ± 3.5 nM
16 | target 1 insG 3' of 4,insA 3' of 4 (mixed) RNA 1: CACCCGUGCAAAAAUGCAGGGGUCUAAAACUGAGCGGAUAACCUCUCUAUGG RNA 2: GGGAAUGGAUCCACAUCUACGAAUUCGUACCAUAGAGAGGUUAUCCGCGAUCACCGAGAUCGGAAGAGCACACGU | 4.63 ± 0.25 nM
17 | target 1 insG 3' of 19 (mixed) RNA 1: CACCCGUGCAAAAAUGCAGGGGUCUAAAACUGAGCGGAUAACCUCUCUAUGG RNA 2: GGGAAUGGAUCCACAUCUACGAAUUCGUACCAUGAGAGAGGUUAUCCGCUCACCGAGAUCGGAAGAGCACACGU | 50 ± 4 nM
18 | target 1 insC 3' of 18,insA 3' of 17 (mixed) RNA 1: CACCCGUGCAAAAAUGCAGGGGUCUAAAACUGAGCGGAUAACCUCUCUAUGG RNA 2: GGGAAUGGAUCCACAUCUACGAAUUCGUACCAUACGAAGAGGUUAUCCGCUCACCGAGAUCGGAAGAGCACACGU | 50 ± 6 nM
19 | target 1 insA 3' of 6,insG 3' of 4 (mixed) RNA 1: CACCCGUGCAAAAAUGCAGGGGUCUAAAACUGAGCGGAUAACCUCUCUAUGG RNA 2: GGGAAUGGAUCCACAUCUACGAAUUCGUACCAUAGAGAGGUUAUCCAGCGUCACCGAGAUCGGAAGAGCACACGU | 12.7 ± 0.6 nM
20 | target 1 insU 3' of 5,insG 3' of 3 (mixed) RNA 1: CACCCGUGCAAAAAUGCAGGGGUCUAAAACUGAGCGGAUAACCUCUCUAUGG RNA 2: GGGAAUGGAUCCACAUCUACGAAUUCGUACCAUAGAGAGGUUAUCCGUCUGCACCGAGAUCGGAAGAGCACACGU | 12.9 ± 0.9 nM
21 | target 1 insA 3' of 22,insU 3' of 9 (mixed) RNA 1: CACCCGUGCAAAAAUGCAGGGGUCUAAAACUGAGCGGAUAACCUCUCUAUGG RNA 2: GGGAAUGGAUCCACAUCUACGAAUUCGUACACAUAGAGAGGUUAUUCCGCUCACCGAGAUCGGAAGAGCACACGU | 21.6 ± 1.5 nM
22 | target 1 A1G,C7G (mixed) RNA 1: CACCCGUGCAAAAAUGCAGGGGUCUAAAACUGAGCGGAUAACCUCUCUAUGG RNA 2: GGGAAUGGAUCCACAUCUACGAAUUCGUACCAUAGAGAGGUUAUGCGCUCGCCGAGAUCGGAAGAGCACACGU | 9.2 ± 0.9 nM
23 | target 1 insA 3' of 11,insG 3' of 3 (mixed) RNA 1: CACCCGUGCAAAAAUGCAGGGGUCUAAAACUGAGCGGAUAACCUCUCUAUGG RNA 2: GGGAAUGGAUCCACAUCUACGAAUUCGUACCAUAGAGAGGUAUAUCCGCUGCACCGAGAUCGGAAGAGCACACGU | 12.1 ± 0.6 nM
24 | target 1 insA 3' of 22,insA 3' of 17 (mixed) RNA 1: CACCCGUGCAAAAAUGCAGGGGUCUAAAACUGAGCGGAUAACCUCUCUAUGG RNA 2: GGGAAUGGAUCCACAUCUACGAAUUCGUACACAUAGAAGAGGUUAUCCGCUCACCGAGAUCGGAAGAGCACACGU | 27.5 ± 2 nM
25 | target 1 G12U,A16C (mixed) RNA 1: CACCCGUGCAAAAAUGCAGGGGUCUAAAACUGAGCGGAUAACCUCUCUAUGG RNA 2: GGGAAUGGAUCCACAUCUACGAAUUCGUACCAUAGCGAGUUUAUCCGCUCACCGAGAUCGGAAGAGCACACGU | 76 ± 14 nM
26 | target 1 insU 3' of 13,insG 3' of 8 (mixed) RNA 1: CACCCGUGCAAAAAUGCAGGGGUCUAAAACUGAGCGGAUAACCUCUCUAUGG RNA 2: GGGAAUGGAUCCACAUCUACGAAUUCGUACCAUAGAGAGUGUUAUGCCGCUCACCGAGAUCGGAAGAGCACACGU | 11.9 ± 1.3 nM
27 | target 1 insA 3' of 15,insC 3' of 14 (mixed) RNA 1: CACCCGUGCAAAAAUGCAGGGGUCUAAAACUGAGCGGAUAACCUCUCUAUGG RNA 2: GGGAAUGGAUCCACAUCUACGAAUUCGUACCAUAGAGAACGGUUAUCCGCUCACCGAGAUCGGAAGAGCACACGU | 14.8 ± 0.7 nM
28 | target 1 insA 3' of 19,insA 3' of 13 (mixed) RNA 1: CACCCGUGCAAAAAUGCAGGGGUCUAAAACUGAGCGGAUAACCUCUCUAUGG RNA 2: GGGAAUGGAUCCACAUCUACGAAUUCGUACCAUAAGAGAGAGUUAUCCGCUCACCGAGAUCGGAAGAGCACACGU | 17.9 ± 2 nM

— publication PMC10786891, “Massively parallel profiling of RNA-targeting CRISPR-Cas13d”
